Broadly, the Kd is the free concentration of one partner at which half of the binding sites on the other are occupied at equilibrium, for simple one-to-one binding. One may read the kon as a measure of how fast the partners come together. As a reminder, the koff is the rate constant with which the complex falls apart.

Test [1] deals with TIGIT on human CMV pp65-specific CD8+ T cells (human) (UniProt Q495A1). Nature of the test: flow cytometry on CMV pp65-specific CD8+ T cells, day 11, against an isotype control.
Test [2] deals with T1, Human TIGIT-HIS monomer (Sino Biological) (human, UniProt Q495A1 22-141).
T1 construct: Bought protein; also called TIGIT-His (Sino Biological cat #10917-H08H); biotinylated TIGIT-His; not shown: His tag
T1 sequence (looked up): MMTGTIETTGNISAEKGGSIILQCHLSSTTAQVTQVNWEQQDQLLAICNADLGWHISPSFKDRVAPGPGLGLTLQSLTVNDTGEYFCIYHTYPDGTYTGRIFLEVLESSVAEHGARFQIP
Nature of the test: SPR (ProteOn XPR 36, 22 C); BsAb captured on anti-human Fc, TIGIT-HIS monomer as analyte; kd/ka with kd held constant; rough estimate.

Test [3] addresses T2, PVRIG on human CMV pp65-specific CD8+ T cells (human, UniProt Q6DKI7 41-326).
T2 sequence (looked up): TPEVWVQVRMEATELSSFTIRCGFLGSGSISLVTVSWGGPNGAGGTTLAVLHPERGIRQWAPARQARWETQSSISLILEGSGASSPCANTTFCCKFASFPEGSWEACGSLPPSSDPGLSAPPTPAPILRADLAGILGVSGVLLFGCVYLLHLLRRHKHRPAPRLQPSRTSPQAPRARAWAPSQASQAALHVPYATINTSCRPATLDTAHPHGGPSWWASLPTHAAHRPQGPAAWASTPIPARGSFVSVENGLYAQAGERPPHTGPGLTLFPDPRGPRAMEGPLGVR
The test can be described thus: cell-based or functional assay.

Test [4] concerns the target T3, TIGIT on human CMV pp65-specific CD8+ T cells (human, UniProt Q495A1 22-244).
T3 sequence (looked up): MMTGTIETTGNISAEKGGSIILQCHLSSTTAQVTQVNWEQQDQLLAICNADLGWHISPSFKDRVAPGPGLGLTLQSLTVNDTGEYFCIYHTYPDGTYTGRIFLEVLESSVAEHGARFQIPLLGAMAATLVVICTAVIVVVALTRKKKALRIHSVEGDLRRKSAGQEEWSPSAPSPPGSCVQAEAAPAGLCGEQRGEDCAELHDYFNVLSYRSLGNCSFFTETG
Nature of the test: cell-based or functional assay.

Test [5] deals with T1, Human TIGIT-HIS monomer (Sino …). The test can be described thus: SPR (ProteOn XPR 36, 22 C); BsAb captured on anti-human Fc, TIGIT-HIS monomer as analyte, 1:1 fit with kd held constant; rough estimate.
The target is the same in test [6]. Nature of the test: SPR (ProteOn XPR 36, 22 C); BsAb captured on anti-human Fc, TIGIT-HIS monomer as analyte; value fixed, not fitted, because too little dissociation was seen in 15 min.
Test [7] deals with T4, Human PVRIG-HIS (prepared in-house) (human, UniProt Q6DKI7 41-171, limits assumed).
T4 construct: In-house protein; also called PVRIG-His (Compugen, lot 20170623); biotinylated PVRIG-His; not shown: His tag
T4 sequence (looked up): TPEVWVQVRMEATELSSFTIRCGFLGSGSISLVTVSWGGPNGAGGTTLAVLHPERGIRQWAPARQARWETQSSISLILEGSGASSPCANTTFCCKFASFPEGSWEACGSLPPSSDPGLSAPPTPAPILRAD
The test can be described thus: SPR (ProteOn XPR 36, 22 C); BsAb captured on anti-human Fc, PVRIG-HIS as analyte, 1:1 fit.

In test [1], “anti-TIGIT (clone: MBSA43)-allophycocyanin (APC; e-Bioscience) (antibody)” showed an MFIr (MFI of target antibody divided by MFI of control antibody) of 4 fold.

B1: CHA.7.518.1.H4(S241P)/CPA.9.086 bispecific antibody (bispecific antibody, human IgG4 S228P, kappa, lambda)
heavy 1: QVQLVQSGAEVKKPGASVKVSCKASGYTFTDYNINWVRQAPGQGLEWMGYIYPYIGGSGYAQKFQGRVTMTRDTSTSTVYMELSSLRSEDTAVYYCAREDKTARNAMDYWGQGTLVTVSSASTKGPSVFPLAPCSRSTSESTAALGCLVKDYFPEPVTVSWNSGALTSGVHTFPAVLQSSGLYSLSSVVTVPSSSLGTKTYTCNVDHKPSNTKVDKRVESKYGPPCPPCPAPEFLGGPSVFLFPPKPKDTLMISRTPEVTCVVVDVSQEDPEVQFNWYVDGVEVHNAKTKPREEQFNSTYRVVSVLTVLHQDWLNGKEYKCKVSNKGLPSSIEKTISKAKGQPREPQVYTLPPCQDELTKNQVSLWCLVKGFYPSDIAVEWESNGQPENNYKTTPPVLDSDGSFFLYSRLTVDKSRWQEGNVFSCSVMHEALHNHYTQKSLSLSPGK
light 1: DIQMTQSPSSLSASVGDRVTITCRVSENIYSNLAWYQQKPGKAPKLLIYEATNLAEGVPSRFSGSGSGTDFTLTISSLQPEDFATYYCQHFWGTPYTFGQGTKLEIKRTVAAPSVFIFPPSDEQLKSGTASVVCLLNNFYPREAKVQWKVDNALQSGNSQESVTEQDSKDSTYSLSSTLTLSKADYEKHKVYACEVTHQGLSSPVTKSFNRGEC
heavy 2: EVQLVETGGGLIQPGRSLRLSCAASGFTFSSYAMHWVRQAPGKGLEWVAVISYAGEVKYYADSVKGRFTISRDNSKNTLYLQMNSLRAEDTAVYYCARDPLPLHYYGMDVWGQGTTVTVSSASGQPKAAPSVTLFPPSSEELQANKATLVCLISDFYPGAVTVAWKADSSPVKAGVETTTPSKQSNNKYAASSYLSLTPEQWKSHRSYSCQVTHEGSTVEKTVAPTECSESKYGPPCPPCPAPEFLGGPSVFLFPPKPKDTLMISRTPEVTCVVVDVSQEDPEVQFNWYVDGVEVHNAKTKPREEQFNSTYRVVSVLTVLHQDWLNGKEYKCKVSNKGLPSSIEKTISKAKGQPREPQVCTLPPSQDELTKNQVSLSCAVKGFYPSDIAVEWESNGQPENNYKTTPPVLDSDGSFFLVSRLTVDKSRWQEGNVFSCSVMHEALHNHYTQKSLSLSPGK
light 2: QSALTQPRSASGNPGQRVTISCSGSSSNMGRRPVNWYQQIPGTAPKLLIYSQNQRPSGVPDRFSGSQSGTSASLTISGLQSEDEAEYFCAVWDDIGRVLQLGGGTQLAVLSSASTKGPSVFPLAPSSKSTSGGTAALGCLVKDYFPEPVTVSWNSGALTSGVHTFPAVLQSSGLYSLSSVVTVPSSSLGTQTYICNVNHKPSNTKVDKKVEPKSC
notes: also called CHA.7.518.1.H4(S241P)/CPA.9.086 BsAb; TIGIT-PVRIG Bispecific antibody
With B1, the Kd in test [2] is ≤ 0.0026 nM; in test [7], 0.187 nM. Besides, the “IFN-γ production EC50, donor 4 (both receptors blocked)” value in test [3] and in test [4] was 0.36 nM in each case. The “IFN-γ production EC50, donor 72 (both receptors blocked)” value in test [3] and in test [4] was 0.53 nM in each case. The figures for the kon in test [5] and in test [7] were 3.9e+06 M⁻¹ s⁻¹ and 1.3e+06 M⁻¹ s⁻¹, respectively. The koff is ≤ 1e-05 s⁻¹ in test [6] and 0.00024 s⁻¹ in test [7].

Values taken from patent US20190382477A1 (COMPUGEN, published 2019).
